Assay results taken from patent US12325863B2, “MDA-7/IL-24 secretory variants and methods of use” (Virginia Commonwealth University, priority 2018, dated 2025).
Positions count from the first letter of the chain named. Names may count otherwise.

Assays:
RWPE-1 cells = experiment: MTT assay with Mcl-1 inhibitors, RWPE-1; type: cell-based, human; conditions: alone or in combination with MDA-7/IL-24, 48 hrs; FIG. 26C
Method: Human (DU-145) CaP cells were treated with different targeted small molecules alone (FIG. 26A) or in combination with MDA-7/IL-24 (FIG. 26B), and after 48 hrs cell growth was measured by MTT. * indicates statistical significance vs. respective control group. Immortalized primary normal human prostate epithelial cells, RWPE-1, were treated with different combinations as indicated and MTT assays were performed at 48 hrs (FIG. 26C). Murine (RMI-BM) CaP cells were treated with different targeted small molecules alone (FIG. 26D) or in combination with MDA-7/IL-24 (FIG. 26E), and after 48 hrs. cell growth was measured by MTT.
To test a multi-target approach for treatment of prostate cancer bone metastases, experiments were conducted to target Mcl-1 inhibition and investigate the effects on NG-mda-7/IL-24 efficacy. Using NMR (nuclear magnetic resonance) and computational biology, two Mcl-1 inhibitors were identified (Sabutoclax and BI-97D6) and their activity was validated in immune competent mice in combination with MDA-7/IL-24. In addition to these inhibitors, three commercially available targeted inhibitors were evaluated to determine potential synergistic effects with MDA-7/IL-24. The three inhibitors were UMI-77 (showing selectivity to Mcl-1 over other members of the Bcl-2 family), Marinopyrrole A (selective inhibitor of Mcl-1), and A-1210477. […]

[1] = Sabutoclax and BI-97D6 in combination with MDA-7/IL-24; conditions: combined with MDA-7/IL-24; earlier observation referred to
Method: To test a multi-target approach for treatment of prostate cancer bone metastases, experiments were conducted to target Mcl-1 inhibition and investigate the effects on NG-mda-7/IL-24 efficacy. […] In addition to these inhibitors, three commercially available targeted inhibitors were evaluated to determine potential synergistic effects with MDA-7/IL-24. […] Next, the therapeutic effect of MDA-7/IL-24 protein in combination with BI-97D6 was tested, in male athymic nude mice injected by the intracardiac route with human prostate cancer PC3-ML cells, resulting in bone metastases.

[2] = tested on: human prostate cancer PC3-ML cells; experiment: PC3-ML intracardiac bone metastasis model in athymic nude mice; type: in vivo; conditions: single agent, versus control group
Method: To test a multi-target approach for treatment of prostate cancer bone metastases, experiments were conducted to target Mcl-1 inhibition and investigate the effects on NG-mda-7/IL-24 efficacy. Using NMR (nuclear magnetic resonance) and computational biology, two Mcl-1 inhibitors were identified (Sabutoclax and BI-97D6) and their activity was validated in immune competent mice in combination with MDA-7/IL-24. In addition to these inhibitors, three commercially available targeted inhibitors were evaluated to determine potential synergistic effects with MDA-7/IL-24. The three inhibitors were UMI-77 (showing selectivity to Mcl-1 over other members of the Bcl-2 family), Marinopyrrole A (selective inhibitor of Mcl-1), and A-1210477. […] Mcl-1 expression was elevated by 1.7-fold in RM1-BM (RM1-BM cells selected for enhanced metastasis to bone) as compared to RM1 cells, indicating functional relevance of Mcl-1 in this metastatic process. […] This further supported the cancer-specificity of specific Mcl-1 inhibitors. Next, the therapeutic effect of MDA-7/IL-24 protein in combination with BI-97D6 was tested, in male athymic nude mice injected by the intracardiac route with human prostate cancer PC3-ML cells, resulting in bone metastases.

SARI = SARI expression at the transcript level in transfected DU-145 cells; type: cell-based, human
Method: (§1) SARI expression was determined at the transcript level in DU-145 cells after transfection with the indicated plasmids. […] The protein expression of MDA-7/IL-24 from the conditioned media (FIG. 5) and cell lysates (FIG. 6) of HeLa cells transfected with full length MDA-7 and Insulin(sp)-MDA-7 was assayed.
(§2) Having an MDA-7/IL-24 construct with enhanced protein secretion as well as enhanced protein stability may be very valuable as a potential gene therapeutic for cancer. Accordingly, lysine 122 was mutated to arginine in the Insulin(sp)-MDA-7 construct using site-directed mutagenesis. […] PARP cleavage and the expression of GRP-78 were also assessed in DU-145 cells following transfection with MDA-7(sp)-MDA-7 (wild type MDA-7 signal peptide), Insulin(sp)-MDA-7, MDA-7(sp)-MDA-7(K122R) and Insulin(sp)-MDA-7(K122R) (FIG. 13).
(§3) PARP cleavage and the expression of GRP-78 were also evaluated in DU-145 cells following transfection with these four constructs, the results for which are shown in FIG. 20.

HeLa cells [3] = experiment: MTT assay following transfection of HeLa cells with constructs; type: cell-based, human; conditions: for proliferation (MTT): following transfection of HeLa cells, FIG. 14
Description: (§4) Next, lysine 122 of MDA-7/IL-24 was converted to arginine by site directed mutagenesis using forward primer (5′-[…]-3′) (SEQ ID NO: 19) and reverse primer (5′-[…]-3′) (SEQ ID NO: 20). […] These enzymes are capable of reducing the tetrazolium dye MTT 3-(4,5-dimethylthiazol-2-yl)-2,5-diphenyltetrazolium bromide to its insoluble formazan, which has a purple color.
as §2, §3

DU-145 cells [4] = experiment: M4 expression in conditioned media of transfected DU-145 cells (ELISA); type: cell-based, human; conditions: compared to the other 3 signal peptides, FIG. 17
Method: To determine if different sequence motifs could enhance the secretion of M4 over Flt-3(sp)-M4, three additional signal peptides linked to M4 were introduced and protein secretion was assessed. The four signal peptides tested were endogenous human MDA-7/IL-24, human IL-2, human Insulin, and Flt-3 signal peptides. The constructs were designated MDA-7(sp)-M4 (wildtype MDA-7/IL-24 secretory peptide), IL-2(sp)-M4, Insulin(sp)-M4, and Flt-3(sp)-M4, respectively, and a schematic illustration is shown in FIG. 16. Each of these constructs also included a Histidine-tag. These constructs were transfected into DU-145 cells and assessed for expression of M4 in the conditioned media (FIG. 17) and at the transcript level (FIG. 18). An MDA-7/IL-24 antibody and RT-Q-PCR primers able to detect M4 were used to assess M4 expression.
as §3

HeLa cells [5] = experiment: MTT assay, HeLa cells treated with conditioned media from transfected HeLa cells; type: cell-based, human; conditions: vs control conditioned media, FIG. 8
Description: as §4

HeLa cells [6] = experiment: MDA-7/IL-24 protein in conditioned media and lysates of transfected HeLa cells (Western blotting); type: cell-based, human
Method: as §1, §4

DU-145 cells [7] = experiment: MTT assay, DU-145 cells treated with conditioned media from transfected HeLa cells; type: cell-based, human; conditions: vs control conditioned media, FIG. 9
Description: as §4

DU-145 cells [8] = experiment: MDA-7/IL-24 transcript level (RTQ-PCR) in transfected DU-145 cells; type: cell-based, human; conditions: DU-145 cells transfected; FIG. 11
DU-145 cells [9] = experiment: ELISA of MDA-7/IL-24 protein in conditioned media of transfected DU-145 cells; type: cell-based, human; conditions: DU-145 cells transfected; FIG. 10
Method: In an effort to enhance its anti-cancer activity, genetic engineering experiments were conducted to enhance MDA-7/IL-24 secretion. Five different signal peptides (abbreviated “sp”) were introduced, linked to MDA-7/IL-24, and assessed for protein secretion. The five signal peptides tested were endogenous human MDA-7/IL-24, human IL-2, human Insulin, Flt-3 and human BM40 (osteonectin/SPARC) signal peptides. The constructs were designated MDA-7(sp)-MDA-7 (wild type MDA-7 signal peptide), IL-2(sp)-MDA-7, Insulin(sp)-MDA-7, Flt-3(sp)-MDA-7 and BM40(sp)-MDA-7, respectively. Each of these constructs also included a Histidine-tag. These constructs were transfected into DU-145 cells (human prostate cancer cells).
The presence of MDA-7/IL-24 in the conditioned media was assessed by enzyme-linked immunosorbent assay (ELISA) and results are shown in FIG. 2.
as §2

DU-145 cells [10] = experiment: M4 protein in lysate and conditioned media of transfected DU-145 cells; type: cell-based, human; conditions: K122R versus Flt-3(sp)-M4, FIG. 22
Description: (§5) As noted in Example 1, improvements were obtained by mutating lysine at position 122 to arginine in full-length MDA-7/IL-24. The corresponding lysine was identified in M4 and mutated to arginine using site directed mutagenesis using forward primer (5′-[…]-3′) (SEQ ID NO: 19) and reverse primer (5′-[…]-3′) (SEQ ID NO: 20). Next, Flt-3(sp)-M4 and Flt-3(sp)-M4(K122R) were transfected into DU-145 cells. […] The conditioned media from transfected IM-PHFA (immortalized primary human fetal astrocytes) cells was added to DU-145 cells and MTT assays were performed (FIG. 24).

DU-145 cells [11] = experiment: MTT assay, DU-145 cells treated with conditioned media from transfected IM-PHFA cells; type: cell-based, human; conditions: compared to the control, FIG. 24
Description: as §5

O=C(c1ccccc1O)c1[nH]c(Cl)c(Cl)c1-n1c(C(=O)c2ccccc2O)cc(Cl)c1Cl [Marinopyrrole A]
anti-proliferative effects (MTT) (RWPE-1 cells): anti-proliferative effects

BI-97D6 [reference compound]
antitumor synergy [1]: antitumor synergy
bone metastases [2]: statistically significant inhibition of bone metastases

B1: Insulin(sp)-M4: human Insulin signal peptide linked to M4; encoded by SEQ ID NO: 12 (protein)
chain: MALWMRLLPLLALLALWGPDPAAAHHHHHHENLYFQGMESCYLVHTLLEFYLKTVFKNYHNRTVEVRTLKSFSTLANNFVLIVSQLQPSQENEMFSIRDSAHRRFLLFRRAFKQLDVEAALTKALGEVDILLTWMQKFYKL
SARI expression (SARI; DU-145 cells, four signal peptide M4 constructs, FIG. 19): highest SARI expression
growth (MTT) (HeLa cells [3]; M4 constructs, transfection of HeLa cells, FIG. 21): growth suppression
M4 protein secretion (DU-145 cells [4]): enhanced M4 protein secretion to a greater extent

B2: MDA-7(sp)-MDA-7(K122R): MDA-7/IL-24 with lysine 122 converted to arginine; encoded by SEQ ID NO: 10 (protein, UniProt Q13007 1-206, looked up, variant K122R)
chain: MNFQQRLQSLWTLARPFCPPLLATASQMQMVVLPCLGFTLLLWSQVSGAQGQEFHFGPCQVKGVVPQKLWEAFWAVKDTMQAQDNITSARLLQQEVLQNVSDAESCYLVHTLLEFYLKTVFRNYHNRTVEVRTLKSFSTLANNFVLIVSQLQPSQENEMFSIRDSAHRRFLLFRRAFKQLDVEAALTKALGEVDILLTWMQKFYKL
modifications: full-length
proliferation (MTT) (HeLa cells [5]): decrease in proliferation
protein in the conditioned media by Western blotting (HeLa cells [6]; HeLa cells transfected, FIG. 5): increase in protein
protein in cell lysate by Western blotting (HeLa cells [6]; HeLa cells transfected, FIG. 6): increase in protein
proliferation (MTT) (HeLa cells [3]): decrease in proliferation
proliferation (MTT) (DU-145 cells [7]): decrease in proliferation

B3: Insulin(sp)-MDA-7: human Insulin signal peptide linked to MDA-7/IL-24, Histidine-tag; encoded by SEQ ID NO: 6 (protein)
chain: MALWMRLLPLLALLALWGPDPAAAHHHHHHENLYFQGMQEFHFGPCQVKGVVPQKLWEAFWAVKDTMQAQDNITSARLLQQEVLQNVSDAESCYLVHTLLEFYLKTVFKNYHNRTVEVRTLKSFSTLANNFVLIVSQLQPSQENEMFSIRDSAHRRFLLFRRAFKQLDVEAALTKALGEVDILLTWMQKFYKL
SARI expression at the transcript level (SARI; DU-145 cells, five signal peptide MDA-7 constructs, FIG. 4): highest SARI expression
proliferation (MTT) (HeLa cells [5]): decrease in proliferation
MDA-7/IL-24 protein secretion (HeLa cells [6]; HeLa cells, versus full length MDA-7, FIGS. 5, 6): dramatic increase in MDA-7/IL-24 protein secretion
proliferation (MTT) (HeLa cells [3]): decrease in proliferation
proliferation (MTT) (DU-145 cells [7]): decrease in proliferation

B4: Insulin(sp)-MDA-7(K122R): insulin signal peptide fused to the K122R mutation variant of MDA-7/IL-24; encoded by SEQ ID NO: 11 (protein)
chain: B3 chain with K109R
SARI induction at the transcript level (SARI; compared to Insulin(sp)-MDA-7 or MDA-7 containing K122R, FIG. 12): highest SARI induction
MDA-7/IL-24 expression at the transcript level using RTQ-PCR (DU-145 cells [8]): enhanced MDA-7/IL-24 expression
proliferation (MTT) (HeLa cells [3]): decrease in proliferation
MDA-7/IL-24 expression in the conditioned media using ELISA (DU-145 cells [9]): enhanced MDA-7/IL-24 expression

B5: Flt-3(sp)-M4(K122R): Flt-3(sp)-M4 with the corresponding lysine mutated to arginine; encoded by SEQ ID NO: 16 (protein)
chain: MTVLAPAWSPTTYLLLLLLLSGSESCYLVHTLLEFYLKTVFRNYHNRTVEVRTLKSFSTLANNFVLIVSQLQPSQENEMFSIRDSAHRRFLLFRRAFKQLDVEAALTKALGEVDILLTWMQRFYKLGGSHHHHHH
protein in cell lysates (DU-145 cells [10]): increase in protein
protein in the conditioned media (DU-145 cells [10]): increase in protein
cell growth (MTT) (DU-145 cells [11]): cell growth suppression

B6: Flt-3(sp)-M4: Flt-3 signal peptide linked to M4; encoded by SEQ ID NO: 14 (protein)
chain: B5 chain with R42K, R122K
cell growth (MTT) (DU-145 cells [11]): cell growth suppression
